{
  "source": "patent US20200262916A1",
  "about": "“Mammalian Atg8 Proteins Control Autolysosomal Biogenesis Through SNARES” (STC. UNM, priority 2019, published 2020)",
  "key": {"[1]": {"tested_on": "HeLa cells stably expressing YFP-Parkin", "experiment": "Parkin-dependent mitophagy, HCM quantification of mitochondrial DNA (mtDNA)", "type": "cell-based", "details": "wild type HeLa-YFP-Parkin cells; CCCP 10 μM or oligomycin A 5 μM and antimycin A 10 μM; 16 hours"}, "[2]": {"tested_on": "Huh7 cells", "experiment": "Pexophagy, Western blot of peroxisomal proteins PEX14 and PMP70", "type": "cell-based", "details": "H2O2 0.4 mM, over a period of 6 hours"}, "[3]": {"biological_target": "T1, VPS41 (endogenous) (UniProt P49754 1-854, limits assumed)", "T1 construct": "also called HOPS component VPS41", "T1 sequence (looked up)": "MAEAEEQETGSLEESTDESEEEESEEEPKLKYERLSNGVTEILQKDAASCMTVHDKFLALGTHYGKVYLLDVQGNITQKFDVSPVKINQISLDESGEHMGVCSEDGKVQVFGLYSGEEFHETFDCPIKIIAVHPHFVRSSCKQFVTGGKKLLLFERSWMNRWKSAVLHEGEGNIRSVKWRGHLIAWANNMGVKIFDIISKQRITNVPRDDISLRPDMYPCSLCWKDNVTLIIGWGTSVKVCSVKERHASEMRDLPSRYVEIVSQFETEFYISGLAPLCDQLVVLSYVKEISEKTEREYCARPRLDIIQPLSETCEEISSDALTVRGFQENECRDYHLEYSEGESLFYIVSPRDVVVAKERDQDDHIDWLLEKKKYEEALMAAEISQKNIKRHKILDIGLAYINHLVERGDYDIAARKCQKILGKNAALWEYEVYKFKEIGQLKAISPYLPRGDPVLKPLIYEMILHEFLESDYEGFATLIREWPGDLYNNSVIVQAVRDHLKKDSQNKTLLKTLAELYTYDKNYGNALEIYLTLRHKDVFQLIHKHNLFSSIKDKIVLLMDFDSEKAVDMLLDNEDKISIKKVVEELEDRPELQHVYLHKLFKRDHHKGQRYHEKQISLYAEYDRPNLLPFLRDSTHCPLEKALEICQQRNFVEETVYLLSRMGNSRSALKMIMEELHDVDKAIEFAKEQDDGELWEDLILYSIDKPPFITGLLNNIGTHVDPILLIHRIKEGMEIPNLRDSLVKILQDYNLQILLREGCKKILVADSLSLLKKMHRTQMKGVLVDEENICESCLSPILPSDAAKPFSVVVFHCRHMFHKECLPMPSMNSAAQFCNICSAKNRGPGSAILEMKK", "experiment": "endogenous Co-IP with mouse anti-Stx6 antibody, HeLa cells"}, "[4]": {"biological_target": "T2, VPS33A (endogenous, a component of the HOPS complex) (UniProt Q96AX1 1-596)", "T2 sequence (looked up)": "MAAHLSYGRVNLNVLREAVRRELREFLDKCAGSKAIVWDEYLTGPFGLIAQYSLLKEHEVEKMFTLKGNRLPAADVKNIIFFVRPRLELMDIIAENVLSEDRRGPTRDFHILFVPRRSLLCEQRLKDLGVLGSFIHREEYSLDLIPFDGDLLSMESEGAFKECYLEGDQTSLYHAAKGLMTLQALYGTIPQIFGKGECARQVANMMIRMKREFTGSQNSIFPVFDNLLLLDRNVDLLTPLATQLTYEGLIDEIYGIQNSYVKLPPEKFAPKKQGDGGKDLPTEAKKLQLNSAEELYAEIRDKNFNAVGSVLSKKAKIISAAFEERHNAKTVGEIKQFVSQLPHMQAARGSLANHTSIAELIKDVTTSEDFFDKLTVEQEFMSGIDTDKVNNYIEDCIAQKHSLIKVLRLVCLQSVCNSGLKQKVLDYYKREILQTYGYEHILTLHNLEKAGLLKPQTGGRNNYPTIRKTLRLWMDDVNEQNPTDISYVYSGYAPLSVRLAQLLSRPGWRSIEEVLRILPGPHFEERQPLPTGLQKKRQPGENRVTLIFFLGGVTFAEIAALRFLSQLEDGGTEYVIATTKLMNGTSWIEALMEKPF", "experiment": "endogenous Co-IP with mouse anti-Stx6 antibody, HeLa cells"}},
  "data": [
    {"molecule": "N#CC(C#N)=NNc1cccc(Cl)c1", "note": "[CCCP]", "values": [
      {"measurement": "mtDNA as a measure of cellular mitochondrial content", "setting": "[1]", "value": "major reduction"}
    ]},
    {"molecule": "OO", "note": "[H2O2]", "values": [
      {"measurement": "levels of peroxisomal constituents PEX14 and PMP70", "setting": "[2]", "value": "decrease"}
    ]},
    {"molecule": "Stx6 (endogenous, precipitated with mouse anti-Stx6 antibody from HeLa cells) (other, UniProt O43752 2-255, looked up, also called syntaxin 6) SMEDPFFVVKGEVQKAVNTAQGLFQRWTELLQDPSTATREEIDWTTNELRNNLRSIEWDLEDLDETISIVEANPRKFNLDATELSIRKAFITSTRQVVRDMKDQMSTSSVQALAERKNRQALLGDSGSQNWSTGTTDKYGRLDRELQRANSHFIEEQQAQQQLIVEQQDEQLELVSGSIGVLKNMSQRIGGELEEQAVMLEDFSHELESTQSRLDNVMKKLAKVSHMTSDRRQWCAIAILFAVLLVVLILFLVL", "values": [
      {"measurement": "binding result", "setting": "[3]", "value": "binds"},
      {"measurement": "binding result", "setting": "[4]", "value": "no binding"}
    ]},
    {"molecule": "Vti1a (endogenous, in HeLa and U2OS cells) (other, UniProt Q96AJ9 1-217, looked up) MSSDFEGYEQDFAVLTAEITSKIARVPRLPPDEKKQMVANVEKQLEEAKELLEQMDLEVREIPPQSRGMYSNRMRSYKQEMGKLETDFKRSRIAYSDEVRNELLGDDGNSSENQRAHLLDNTERLERSSRRLEAGYQIAVETEQIGQEMLENLSHDREKIQRARERLRETDANLGKSSRILTGMLRRIIQNRILLVILGIIVVITILMAITFSVRRH", "values": [
      {"measurement": "binding result", "setting": "[4]", "value": "no binding"}
    ]}
  ]
}
